In doi:10.1101/830018 (bioRxiv, 2019):
One block for each binder: values may come before it.

Target: T1, mouse interleukin 11 receptor alpha chain 1 (mouse, UniProt Q64385 24-372)
T1 sequence (looked up): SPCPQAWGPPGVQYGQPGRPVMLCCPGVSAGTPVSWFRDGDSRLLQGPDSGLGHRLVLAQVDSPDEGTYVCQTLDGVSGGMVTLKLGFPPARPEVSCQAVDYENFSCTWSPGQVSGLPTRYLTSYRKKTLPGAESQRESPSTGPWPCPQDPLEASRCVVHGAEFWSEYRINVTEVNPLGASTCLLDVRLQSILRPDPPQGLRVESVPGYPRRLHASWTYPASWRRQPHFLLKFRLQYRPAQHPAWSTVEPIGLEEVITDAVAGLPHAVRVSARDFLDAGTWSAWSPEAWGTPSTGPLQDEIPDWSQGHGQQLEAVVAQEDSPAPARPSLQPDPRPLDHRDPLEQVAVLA
Assay: SPR

Kd: 94 nM
B1: recombinant mouse IL11 (ligand, UniProt P47873 22-199, looked up)
chain: PGPPAGSPRVSSDPRADLDSAVLLTRSLLADTRQLAAQMRDKFPADGDHSLDSLPTLAMSAGTLGSLQLPGVLTRLRVDLMSYLRHVQWLRRAGGPSLKTLEPELGALQARLERLLRRLQLLMSRLALPQAAPDQPVIPLGPPASAWGSIRAAHAILGGLHLTLDWAVRGLLLLKTRL

Kd: 72 nM
B2: recombinant human interleukin 11 (ligand, UniProt P20809 22-199, looked up)
chain: PGPPPGPPRVSPDPRAELDSTVLLTRSLLADTRQLAAQLRDKFPADGDHNLDSLPTLAMSAGALGALQLPGVLTRLRADLLSYLRHVQWLRRAGGSSLKTLEPELGTLQARLDRLLRRLQLLMSRLALPQPPPDPPAPPLAPPSSAWGGIRAAHAILGGLHLTLDWAVRGLLLLKTRL
